This is an account of results in patent publication US20110212476A1.

Some targets named below: Gαi1 A326S (human); Gαi1 R178C (human); Gαi1 R178C/A326S (human); Gαi1 R178M (human); Gαi1 R178M/A326S (human).
Holding throughout (assay): cell-based or functional assay
Assay [1] concerns the target Gαi1 wild type (full length human, His-tagged) (human).

Chain of human His-tagged RGS4 (23-298) (P49798 other isoform, or with tags, fused parts or gaps limits assumed): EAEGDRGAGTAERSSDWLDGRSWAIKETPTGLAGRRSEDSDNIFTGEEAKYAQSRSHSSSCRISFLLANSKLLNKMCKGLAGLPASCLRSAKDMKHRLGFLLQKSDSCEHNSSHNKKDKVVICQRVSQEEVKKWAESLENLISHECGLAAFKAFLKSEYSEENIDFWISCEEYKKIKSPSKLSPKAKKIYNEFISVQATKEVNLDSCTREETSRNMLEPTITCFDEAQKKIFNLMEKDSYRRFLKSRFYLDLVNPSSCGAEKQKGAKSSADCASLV
Chain of Gαi1 R178M/A326S (human) (B2RSH2 2-354 R178M/A326S): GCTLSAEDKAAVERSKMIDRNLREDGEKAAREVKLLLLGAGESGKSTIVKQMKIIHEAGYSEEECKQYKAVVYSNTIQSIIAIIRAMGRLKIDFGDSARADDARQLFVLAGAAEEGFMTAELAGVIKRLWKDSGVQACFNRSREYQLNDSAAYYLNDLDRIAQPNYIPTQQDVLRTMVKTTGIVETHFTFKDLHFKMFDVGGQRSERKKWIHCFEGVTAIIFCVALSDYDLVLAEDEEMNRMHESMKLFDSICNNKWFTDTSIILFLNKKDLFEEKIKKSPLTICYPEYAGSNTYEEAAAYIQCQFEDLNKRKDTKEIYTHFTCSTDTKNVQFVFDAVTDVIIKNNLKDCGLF
Chain of Gαi1 R178C/A326S (human) (B2RSH2 2-354 R178C/A326S): as the sequence (B2RSH2 2-354 R178M/A326S) above, with M177C counted along it
Chain of Gαi1 wild type (full length human, His-tagged) (human) (B2RSH2 2-354): as the sequence (B2RSH2 2-354 R178M/A326S) above, with M177R, S325A counted along it
Chain of Gαi1 R178M (human) (B2RSH2 2-354 R178M): as the sequence (B2RSH2 2-354 R178M/A326S) above, with S325A counted along it
Chain of Gαi1 A326S (human) (B2RSH2 2-354 A326S): as the sequence (B2RSH2 2-354 R178M/A326S) above, with M177R counted along it
Chain of Gαi1 R178C (human) (B2RSH2 2-354 R178C): as the sequence (B2RSH2 2-354 R178M/A326S) above, with M177C, S325A counted along it

Take “human His-tagged RGS4 (23-298) (from UniProt P49798 23-298)”: the GAP Factor with Gαi1 A326S (human) amounted to 1.1 fold; with Gαi1 R178C (human), 0.92 fold; with Gαi1 R178C/A326S (human) it was 3.63 fold; with Gαi1 R178M (human), 1.19 fold; with Gαi1 R178M/A326S (human), 6.47 fold; in assay [1], 0.81 fold. Further, the GTPase rate +RGS4 (steady state, GDP immunodetection) amounted to 0.11 min⁻¹ with Gαi1 A326S (human); 0.00035 min⁻¹ in the assay with Gαi1 R178C (human); 0.069 min⁻¹ in the assay with Gαi1 R178C/A326S (human); 0.007 min⁻¹ with Gαi1 R178M (human); 0.097 min⁻¹ in the assay with Gαi1 R178M/A326S (human); 0.013 min⁻¹ in assay [1]. Moreover, the maximum polarization shift resulting from RGS stimulation in the assay with Gαi1 R178M/A326S (human) was 73 mP. The substance also yielded a stimulation of GTPase activity in the assay with Gαi1 R178M/A326S (human) of 6.6 fold.
